In patent US12281147:
pKd: −log10 of the molar value.

Assays:
human IL-21R (human) [1] = molecular target: human IL-21R (human) (UniProt Q9HBE5); experiment: AlphaSeq yeast mating assay, pH 6 media
human IL-21R (human) [2] = molecular target: human IL-21R (human) (UniProt Q9HBE5); experiment: AlphaSeq yeast mating assay, unbuffered media
human IL-21R (human) [3] = molecular target: human IL-21R (human) (UniProt Q9HBE5); experiment: AlphaSeq yeast mating assay, pH 5 media
human IL-21R (human) [4] = molecular target: human IL-21R (human) (UniProt Q9HBE5); experiment: AlphaSeq yeast mating assay, pH 7 media

pKd (human IL-21R (human) [1]) | pKd (human IL-21R (human) [2]) | pKd (human IL-21R (human) [3]) | pKd (human IL-21R (human) [4]) | Substance
4.55 | 3.11 |  |  | IL-21_A75N (from UniProt Q9HBE4 32-152) (ligand)
 |  | 4.40 |  | IL-21_D33P (from UniProt Q9HBE4 32-152) (ligand)
 |  | 4.59 | 6.85 | IL-21_D33R (from UniProt Q9HBE4 32-152) (ligand)
7.30 |  |  | 6.70 | IL-21_D44G (from UniProt Q9HBE4 32-152) (ligand)
5.14 | 3.23 |  |  | IL-21_D44P (from UniProt Q9HBE4 32-152) (ligand)
7.36 |  | 6.46 | 6.80 | IL-21_D44T (from UniProt Q9HBE4 32-152) (ligand)
4.57 | 3.28 |  |  | IL-21_D47P (from UniProt Q9HBE4 32-152) (ligand)
5.34 | 3.48 |  |  | IL-21_D47S (from UniProt Q9HBE4 32-152) (ligand)
 |  | 7.26 | 7.59 | IL-21_D66M (from UniProt Q9HBE4 32-152) (ligand)
5.82 |  | 4.39 | 6.47 | IL-21_E59R (from UniProt Q9HBE4 32-152) (ligand)
 |  | 7.33 | 6.80 | IL-21_E72L (from UniProt Q9HBE4 32-152) (ligand)
4.26 |  |  |  | IL-21_F76D (from UniProt Q9HBE4 32-152) (ligand)
4.85 |  | 4.10 | 5.04 | IL-21_F76H (from UniProt Q9HBE4 32-152) (ligand)
4.39 |  | 3.60 |  | IL-21_F76P (from UniProt Q9HBE4 32-152) (ligand)
4.30 |  |  | 4.20 | IL-21_F76Q (from UniProt Q9HBE4 32-152) (ligand)
5.26 |  |  |  | IL-21_F79K (from UniProt Q9HBE4 32-152) (ligand)
5.11 |  |  | 5.48 | IL-21_F79P (from UniProt Q9HBE4 32-152) (ligand)
5.36 |  | 4.19 | 5.35 | IL-21_F79R (from UniProt Q9HBE4 32-152) (ligand)
5.48 |  | 4.04 | 5.85 | IL-21_F79T (from UniProt Q9HBE4 32-152) (ligand)
 |  | 4.48 | 6.48 | IL-21_I37N (from UniProt Q9HBE4 32-152) (ligand)
6.77 |  |  | 6.70 | IL-21_I37R (from UniProt Q9HBE4 32-152) (ligand)
 |  | 3.48 |  | IL-21_I43P (from UniProt Q9HBE4 32-152) (ligand)

pKd (human IL-21R (human) [1]) | pKd (human IL-21R (human) [2]) | pKd (human IL-21R (human) [3]) | pKd (human IL-21R (human) [4]) | Substance
5.96 |  | 4.37 |  | IL-21_I43S (from UniProt Q9HBE4 32-152) (ligand)
6.72 |  | 4.70 |  | IL-21_I45D (from UniProt Q9HBE4 32-152) (ligand)
5.21 |  |  |  | IL-21_I45H (from UniProt Q9HBE4 32-152) (ligand)
 |  |  | 6.00 | IL-21_I45N (from UniProt Q9HBE4 32-152) (ligand)
 |  | 4.00 |  | IL-21_I45P (from UniProt Q9HBE4 32-152) (ligand)
6.96 |  | 4.82 | 6.80 | IL-21_I45S (from UniProt Q9HBE4 32-152) (ligand)
4.92 |  |  |  | IL-21_I45Y (from UniProt Q9HBE4 32-152) (ligand)
5.44 |  | 4.19 |  | IL-21_I95P (from UniProt Q9HBE4 32-152) (ligand)
4.96 | 3.80 |  |  | IL-21_I96A (from UniProt Q9HBE4 32-152) (ligand)
4.28 |  |  |  | IL-21_I96G (from UniProt Q9HBE4 32-152) (ligand)
4.18 |  |  |  | IL-21_I96T (from UniProt Q9HBE4 32-152) (ligand)
4.11 |  |  |  | IL-21_I100E (from UniProt Q9HBE4 32-152) (ligand)
 | 3.77 |  |  | IL-21_I148S (from UniProt Q9HBE4 32-152) (ligand)
7.10 |  |  |  | IL-21_K104G (from UniProt Q9HBE4 32-152) (ligand)
 |  | 5.14 |  | IL-21_K106S (from UniProt Q9HBE4 32-152) (ligand)
4.85 |  | 2.80 |  | IL-21_L42D (from UniProt Q9HBE4 32-152) (ligand)
 |  |  | 4.59 | IL-21_L42E (from UniProt Q9HBE4 32-152) (ligand)
4.49 |  |  |  | IL-21_L42G (from UniProt Q9HBE4 32-152) (ligand)
4.59 |  |  | 6.02 | IL-21_L42N (from UniProt Q9HBE4 32-152) (ligand)
 |  | 3.82 |  | IL-21_L42R (from UniProt Q9HBE4 32-152) (ligand)
 |  |  | 4.96 | IL-21_L42S (from UniProt Q9HBE4 32-152) (ligand)
7.96 |  | 7.37 | 7.68 | IL-21_L42Y (from UniProt Q9HBE4 32-152) (ligand)

pKd (human IL-21R (human) [1]) | pKd (human IL-21R (human) [2]) | pKd (human IL-21R (human) [3]) | pKd (human IL-21R (human) [4]) | Substance
 |  | 3.80 |  | IL-21_L49H (from UniProt Q9HBE4 32-152) (ligand)
 |  | 3.77 |  | IL-21_L49N (from UniProt Q9HBE4 32-152) (ligand)
4.26 |  | 3.48 |  | IL-21_L49P (from UniProt Q9HBE4 32-152) (ligand)
 | 3.80 |  |  | IL-21_L49R (from UniProt Q9HBE4 32-152) (ligand)
 |  | 3.62 |  | IL-21_L49S (from UniProt Q9HBE4 32-152) (ligand)
4.52 | 3.96 |  |  | IL-21_L56E (from UniProt Q9HBE4 32-152) (ligand)
 |  | 4.14 | 5.01 | IL-21_L56N (from UniProt Q9HBE4 32-152) (ligand)
4.34 |  |  | 4.36 | IL-21_L56S (from UniProt Q9HBE4 32-152) (ligand)
 |  | 6.92 | 7.62 | IL-21_L61H (from UniProt Q9HBE4 32-152) (ligand)
7.44 |  | 7.28 | 7.25 | IL-21_L120M (from UniProt Q9HBE4 32-152) (ligand)
6.68 |  | 5.92 | 6.68 | IL-21_L120V (from UniProt Q9HBE4 32-152) (ligand)
 | 3.05 |  |  | IL-21_M39K (from UniProt Q9HBE4 32-152) (ligand)
 | 3.59 |  |  | IL-21_M39P (from UniProt Q9HBE4 32-152) (ligand)
4.08 |  |  |  | IL-21_M39Q (from UniProt Q9HBE4 32-152) (ligand)
 |  | 6.96 | 7.36 | IL-21_N51G (from UniProt Q9HBE4 32-152) (ligand)
 |  | 7.48 | 7.03 | IL-21_N70A (from UniProt Q9HBE4 32-152) (ligand)
 |  | 4.96 |  | IL-21_P108G (from UniProt Q9HBE4 32-152) (ligand)
 |  |  | 6.96 | IL-21_P108Q (from UniProt Q9HBE4 32-152) (ligand)
 |  | 4.24 | 5.96 | IL-21_P108T (from UniProt Q9HBE4 32-152) (ligand)
7.62 |  |  | 6.92 | IL-21_P132A (from UniProt Q9HBE4 32-152) (ligand)
 |  | 3.82 | 5.14 | IL-21_Q41K (from UniProt Q9HBE4 32-152) (ligand)
4.46 |  |  |  | IL-21_Q41P (from UniProt Q9HBE4 32-152) (ligand)

pKd (human IL-21R (human) [1]) | pKd (human IL-21R (human) [2]) | pKd (human IL-21R (human) [3]) | pKd (human IL-21R (human) [4]) | Substance
6.70 |  | 4.96 |  | IL-21_Q48K (from UniProt Q9HBE4 32-152) (ligand)
4.92 |  |  |  | IL-21_Q80A (from UniProt Q9HBE4 32-152) (ligand)
 |  | 7.37 | 6.92 | IL-21_Q150S (from UniProt Q9HBE4 32-152) (ligand)
 |  | 6.44 |  | IL-21_R34A (from UniProt Q9HBE4 32-152) (ligand)
7.28 |  | 6.41 | 6.96 | IL-21_R34F (from UniProt Q9HBE4 32-152) (ligand)
7.28 |  | 6.02 |  | IL-21_R34N (from UniProt Q9HBE4 32-152) (ligand)
7.57 |  | 6.85 | 6.96 | IL-21_R34V (from UniProt Q9HBE4 32-152) (ligand)
 |  | 4.82 |  | IL-21_R38A (from UniProt Q9HBE4 32-152) (ligand)
5.92 |  |  | 5.70 | IL-21_R38M (from UniProt Q9HBE4 32-152) (ligand)
 |  | 3.77 |  | IL-21_R105D (from UniProt Q9HBE4 32-152) (ligand)
 | 3.60 |  |  | IL-21_R105K (from UniProt Q9HBE4 32-152) (ligand)
4.43 |  |  |  | IL-21_V46N (from UniProt Q9HBE4 32-152) (ligand)
6.80 |  |  | 6.70 | IL-21_V53Q (from UniProt Q9HBE4 32-152) (ligand)
7.62 |  | 5.80 |  | IL-21_V57H (from UniProt Q9HBE4 32-152) (ligand)
 |  | 7.24 | 7.60 | IL-21_V57M (from UniProt Q9HBE4 32-152) (ligand)
 |  |  | 5.52 | IL-21_V57P (from UniProt Q9HBE4 32-152) (ligand)
 |  | 6.77 | 7.11 | IL-21_V57T (from UniProt Q9HBE4 32-152) (ligand)
7.80 |  | 7.34 |  | IL-21_V57Y (from UniProt Q9HBE4 32-152) (ligand)
 |  | 7.34 |  | IL-21_V98R (from UniProt Q9HBE4 32-152) (ligand)
5.47 |  | 4.19 |  | IL-21_W73N (from UniProt Q9HBE4 32-152) (ligand)
 |  | 4.41 | 6.47 | IL-21_W73S (from UniProt Q9HBE4 32-152) (ligand)
5.19 |  | 3.96 |  | IL-21_W73V (from UniProt Q9HBE4 32-152) (ligand)
